Laboratory results taken from publication PMC11387253, “High sensitive aptasensing chronic myeloid leukemia on circular electrode-modified by single-walled carbon nanotube”.

How the values were obtained:
[1] = biological target: T1, CD19 (Homo sapiens, UniProt P15391 20-291); experiment: electrochemical (current-volt, SWCN-modified IDE); 100 nM CD19; Aptamer immobilized on APTMS-SWCN surface, PEG-COOH blocked; 30 min protein incubation; washes 10 mM PBS pH 7.4; room temperature; 0-2 V in 0.1 V steps; conditions: protein: recombinant
T1 sequence (P15391 20-291): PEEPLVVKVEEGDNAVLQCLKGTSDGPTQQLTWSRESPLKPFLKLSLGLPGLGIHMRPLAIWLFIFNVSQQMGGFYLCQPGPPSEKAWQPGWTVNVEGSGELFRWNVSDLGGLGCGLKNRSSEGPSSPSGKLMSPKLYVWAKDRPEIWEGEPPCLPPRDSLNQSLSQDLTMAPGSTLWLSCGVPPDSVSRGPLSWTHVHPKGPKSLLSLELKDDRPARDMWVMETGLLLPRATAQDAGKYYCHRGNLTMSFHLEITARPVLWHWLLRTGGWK

[2] = biological target: CD33 antigen (UniProt P20138 18-259); experiment: electrochemical (current-volt, SWCN-modified IDE); 100 nM CD33; Aptamer immobilized on APTMS-SWCN surface, PEG-COOH blocked; 30 min protein incubation; washes 10 mM PBS pH 7.4; room temperature; 0-2 V in 0.1 V steps
Chain of CD33 antigen (P20138 18-259): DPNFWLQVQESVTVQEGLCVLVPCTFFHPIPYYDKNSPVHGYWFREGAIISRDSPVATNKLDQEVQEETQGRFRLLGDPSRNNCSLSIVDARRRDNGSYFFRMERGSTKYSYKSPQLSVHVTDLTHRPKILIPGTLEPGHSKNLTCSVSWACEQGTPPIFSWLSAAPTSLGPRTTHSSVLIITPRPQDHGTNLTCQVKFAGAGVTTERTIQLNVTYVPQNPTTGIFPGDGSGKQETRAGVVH

[3] = biological target: T1, CD19; experiment: electrochemical (current-volt, SWCN-modified IDE); 10-100 nM CD19; LOD 10 nM; near saturation above 60 nM; Aptamer immobilized on APTMS-SWCN surface, PEG-COOH blocked; 30 min protein incubation; washes 10 mM PBS pH 7.4; room temperature; 0-2 V in 0.1 V steps; conditions: protein: recombinant

B1: complementary aptamer (ssDNA)
DNA: ACGCACACATCACACAGACAAGAGGAAAAAAACCAACGACGAGAATCCCTAAACCCGCC
modifications: 5' C6-COOH
B1: no binding [1].

B2: CD19 aptamer (ssDNA)
DNA: TGCGTGTGTAGTGTGTCTGTTCTCCTTTTTTTGGTTGCTGCTCTTAGGGATTTGGGCGG
modifications: 5' C6-COOH
B2: no binding [2]; binds [3].
